Test results from the supplement of paper PMC11246515.
± gives the standard deviation of the averaged measurements.

Test: total protein half-life in vivo (active degradation + dilution); higher = more stable protein
[1] = E. coli NCM3722 delta-hslV, growth: N-lim chemostat, doubling time 6 h
[2] = E. coli NCM3722 delta-lon, growth: N-lim chemostat, doubling time 6 h
[3] = E. coli NCM3722 delta-smpB, growth: N-lim chemostat, doubling time 6 h
[4] = wild type E. coli NCM3722, growth: C-lim chemostat, doubling time 3 h
[5] = wild type E. coli NCM3722, growth: C-lim chemostat, doubling time 6 h
[6] = wild type E. coli NCM3722, growth: C-lim chemostat, doubling time 12 h
[7] = wild type E. coli NCM3722, growth: N-lim chemostat, doubling time 6 h
[8] = wild type E. coli NCM3722, growth: N-lim chemostat, doubling time 12 h
[9] = wild type E. coli NCM3722, growth: P-lim chemostat, doubling time 6 h
[10] = wild type E. coli NCM3722, growth: P-lim chemostat, doubling time 12 h
[11] = E. coli NCM3722 delta-clpP delta-lon delta-hslV, growth: N-lim chemostat, doubling time 6 h
[12] = E. coli NCM3722 delta-clpP, growth: N-lim chemostat, doubling time 6 h

Sequence | total protein half-life in vivo [1] | total protein half-life in vivo [2] | total protein half-life in vivo [3] | total protein half-life in vivo [4] | total protein half-life in vivo [5] | total protein half-life in vivo [6] | total protein half-life in vivo [7] | total protein half-life in vivo [8] | total protein half-life in vivo [9] | total protein half-life in vivo [10] | total protein half-life in vivo [11] | total protein half-life in vivo [12]
MPKLRLIGLTLLALSATAVSHAEETRYVSDELNTWVRSGPGDHYRLVGTVNAGEEVTLLQTDANTNYAQVKDSSGRTAWIPLKQLSTEPSLRSRVPDLENQVKTLTDKLTNIDNTWNQRTAEMQQKVAQSDSVINGLKEENQKLKNELIVAQKKVDAASVQLDDKQRTIIMQWFMYGGGVLGLGLLLGLVLPHLIPSRKRKDRWMN [P0ADT8] | 6.56 ± 0.2 h | 6.43 ± 0.12 h | 5.94 ± 0.49 h | 3.03 ± 0.052 h | 5.84 ± 0.24 h | 11.1 ± 0.11 h | 5.83 ± 0.15 h | 11.8 ± 0.99 h | 5.51 ± 0.2 h | 12.5 ± 0.39 h | – | –
MPKPGILKSKSMFCVIYRSSKRDQTYLYVEKKDDFSRVPEELMKGFGQPQLAMILPLDGRKKLVNADIEKVKQALTEQGYYLQLPPPPEDLLKQHLSVMGQKTDDTNK [P0AB43] | 3.56 ± 0.33 h | 4.78 ± 0.62 h | 3.88 ± 0.55 h | 2.71 ± 0.15 h | 4.59 ± 0.29 h | 8.2 ± 0.32 h | 3.5 h | 5.72 ± 0.24 h | 4.48 ± 0.068 h | 8.702 ± 0.013 h | 4.94 ± 0.22 h | 4.28 ± 0.62 h
MPKSVIIPAGSSAPLAPFVPGTLADGVVYVSGTLAFDQHNNVLFADDPKAQTRHVLETIRKVIETAGGTMADVTFNSIFITDWKNYAAINEIYAEFFPGDKPARFCIQCGLVKPDALVEIATIAHIAK [P0AFQ5] | – | – | 3.86 h | – | – | – | – | – | – | – | – | –
MPLIIVVAGIALLLLLTIKIKLNTFVSLIIVSIAVAIASGMDLSKVVTSVESGLGGTLGHIGLIFGFGVMLGRLLADAGGAQRIALTMLNYFGKNKLDWAVVCSAFIVGIALFFEVGLILLVPILFAIAREAKISPMFMCVPMLSGLLVAHGFLPPHPGPTVIAREYGADVGLVLIYGIIVGIPTFILCGPVLNKFCQRIIPDAFKKEGNIASLGATRRFSESEMPGFGISFLTAMLPVILMAVVTIIQMTHAKSAADSGLFYNVILFLGNSTIAMLISLLFAIYTMGLGRGKTIPDLMDSCGKAIAGIAGLLLIIGGGGAFKQVLIDSGVGQYISTLVSGMDINPILMAWGVAAFLRICLGSATVAAISTAGLVIPLLAVHPNTNLALITLATGAGSCICSHVNDASFWMIKDFFGLTTKETLLSWTLMSTLLSISGLIFILLASLVL | – | – | 6.77 h | 3.22 h | – | – | – | – | – | – | – | –
MPLLDIRNLTIEFKTGDEWVKAVDRVSMTLTEGEIRGLVGESGSGKSLIAKAICGVNKDNWRVTADRMRFDDIDLLRLSARERRKLVGHNVSMIFQEPQSCLDPSERVGRQLMQNIPAWTYKGRWWQRFGWRKRRAIELLHRVGIKDHKDAMRSFPYELTEGECQKVMIAIALANQPRLLIADEPTNSMEPTTQAQIFRLLTRLNQNSNTTILLISHDLQMLSQWADKINVLYCGQTVETAPSKELVTMPHHPYTQALIRAIPDFGSAMPHKSRLNTLPGAIPLLEQLPIGCRLGPRCPYAQRECIVTPRLTGAKNHLYACHFPLNMEKE [P0AAH4] | 5.68 ± 0.59 h | 5.96 ± 0.44 h | 5.11 ± 0.24 h | 2.86 ± 0.12 h | 5.52 ± 0.2 h | 11.19 ± 0.067 h | 5.58 ± 0.23 h | 10.5 ± 0.24 h | 5.43 ± 0.13 h | 10.9 ± 0.29 h | 6.47 ± 1 h | 5.65 ± 0.24 h
MPLLHLLRQNPVIAAVKDNASLQLAIDSECQFISVLYGNICTISNIVKKIKNAGKYAFIHVDLLEGASNKEVVIQFLKLVTEADGIISTKASMLKAARAEGFFCIHRLFIVDSISFHNIDKQVAQSNPDCIEILPGCMPKVLGWVTEKIRQPLIAGGLVCDEEDARNAINAGVVALSTTNTGVWTLAKKLL | – | – | 3.74 h | 2.77 ± 0.24 h | 4.77 ± 0.7 h | 12.1 ± 1.7 h | – | – | – | 8.94 h | – | –
MPLLKLWAGSLVMLAAVSLPLQAASPVKVGSKIDTEGALLGNIILQVLESHGVPTVNKVQLGTTPVVRGAITSGELDIYPEYTGNGAFFFKDENDAAWKNAQQGYEKVKKLDSEHNKLIWLTPAPANNTWTIAVRQDVAEKNKLTSLADLSRYLQEGGTFKLAASAEFIERADALPAFEKAYGFKLGQDQLLSLAGGDTAVTIKAAAQQTSGVNAAMAYGTDGPVAALGLQTLSDPQGVQPIYAPAPVVRESVLREYPQMAQWLQPVFASLDAKTLQQLNASIAVEGLDAKKVAADYLKQKGWTK | 6.28 ± 0.2 h | 7.16 ± 0.13 h | 5.47 ± 0.21 h | 3.08 ± 0.17 h | 5.7 ± 0.057 h | 9.88 ± 1.8 h | 5.95 ± 0.34 h | 12 ± 0.96 h | 6.08 ± 0.75 h | 12 ± 0.14 h | 4.32 ± 0.22 h | 5 ± 0.74 h
MPLPDFRLIRLLPLAALVLTACSVTTPKGPGKSPDSPQWRQHQQDVRNLNQYQTRGAFAYISDQQKVYARFFWQQTGQDRYRLLLTNPLGSTELELNAQPGNVQLVDNKGQRYTADDAEEMIGKLTGMPIPLNSLRQWILGLPGDATDYKLDDQYRLSEITYSQNGKNWKVVYGGYDTKTQPAMPANMELTDGGQRIKLKMDNWIVK | – | – | 6.06 ± 0.35 h | 3.18 ± 0.06 h | 6.24 ± 0.15 h | 11.8 ± 0.91 h | 6.37 ± 0.46 h | 13.22 ± 0.027 h | 6.17 ± 0.18 h | 13.7 ± 0.68 h | 5.8 ± 0.1 h | 6.43 ± 0.19 h
MPLRRFSPGLKAQFAFGMVFLFVQPDASAADISAQQIGGVIIPQAFSQALQDGMSVPLYIHLAGSQGRQDDQRIGSAFIWLDDGQLRIRKIQLEESEDNASVSEQTRQQLMALANAPFNEALTIPLTDNAQLDLSLRQLLLQLVVKREALGTVLRSRSEDIGQSSVNTLSSNLSYNLGVYNNQLRNGGSNTSSYLSLNNVTALREHHVVLDGSLYGIGSGQQDSELYKAMYERDFAGHRFAGGMLDTWNLQSLGPMTAISAGKIYGLSWGNQASSTIFDSSQSATPVIAFLPAAGEVHLTRDGRLLSVQNFTMGNHEVDTRGLPYGIYDVEVEVIVNGRVISKRTQRVNKLFSRGRGVGAPLAWQVWGGSFHMDRWSENGKKTRPAKESWLAGASTSGSLSTLSWAATGYGYDNQAVGETRLTLPLGGAINVNLQNMLASDSSWSSIGSISATLPGGFSSLWVNQEKTRIGNQLRRSDADNRAIGGTLNLNSLWSKLGTFSISYNDDRRYNSHYYTADYYQNVYSGTFGSLGLRAGIQRYNNGDSNANTGKYIALDLSLPLGNWFSAGMTHQNGYTMANLSARKQFDEGTIRTVGANLSRAISGDTGDDKTLSGGAYAQFDARYASGTLNVNSAADGYVNTNLTANGSVGWQGKNIAASGRTDGNAGVIFNTGLEDDGQISAKINGRIFPLNGKRNYLPLSPYGRYEVELQNSKNSLDSYDIVSGRKSRLTLYPGNVAVIEPEVKQMVTVSGRIRAEDGTLLANARINNHIGRTRTDENGEFVMDVDKKYPTIDFRYSGNKTCEVALELNQARGAVWVGDVVCSGLSSWAAVTQTGEENES | – | – | – | 2.91 h | – | – | – | – | – | – | – | –
